# Test results published in patent US20260063625A1, “COMPOSITIONS FOR AND METHODS OF DETECTING FOOD TOXINS” (priority 2022, published 2026).
# Test: Fluorescence polarization (FP) binding to fluorescein labeled STX
# Conditions: […]G = RT ln (KdSxph mutant/KdSxph); T = 298K
# Protocol: […]; Measurements were performed at 25° C. on a Synergy H1 microplate reader (BioTek) using the polarization filter setting (excitation 485 nm, emission 528 nm). […]. The dissociation constants were calculated using GraphPad Prism by fitting fluorescence millipolarization (mP=P·10^−3, where P is polarization) as a function of Sxph concentration using the equation: P={(Pbound−Pfree) [Sxph]/(Kd+[Sxph])}+Pfree, where P is the polarization measured at a given Sxph concentration, Pfree is the […], and Pbound is the maximum polarization of Sxph bound by F-STX (Rossi and Taylor, Hansen et al.).
row,Molecule,[…]G (kcal mol^−1) relative to wild-type RcSxph [kcal/mol]
1,F784A: RcSxph mutant F784A (protein) MAPTFQTALFFTIISLSFAAPNAKQVRWCAISDLEQKKCNDLVGSCNVPDITLVCVLRSSTEDCMTAIKDGQADAMFLDSGEVYEASKDPYNLKPIIAEPYSSNRDLQKCLKERQQALAKKMIGHYIPQCDEKGNYQPQQCHGSTGHCWCVNAMGEKISGTNTPPGQTRATCERHELPKCLKERQVALGGDEKVLGRFVPQCDEKGNYEPQQFHGSTGYSWCVNAIGEEIAGTKTPPGKIPATCQKHDLVTTCHYAVAMVKKSSAFQFNQLKGKRSCHSGVSKTDGWKALVTVLVEKKLLSWDGPAKESIQRAMSKFFSVSCIPGATQTNLCKQCKGEEGKNCKNSHDEPYYGNYGAFRCLKEDMGDVAFLRSTALSDEHSEVYELLCPDNTRKPLNKYKECNLGTVPAGTVVTRKISDKTEDINNFLMEAQKRQCKLFSSAHGKDLMFDDSTLQLALLSSEVDAFLYLGVKLFHAMKALTGDAHLPSKNKVRWCTINKLEKMKCDDWSAVSGGAIACTEASCPKGCVKQILKGEADAVKLEVQYMYEALMCGLLPAVEEYHNKDDFGPCKTPGSPYTDFGTLRAVALVKKSNKDINWNNIKGKKSCHTGVGDIAGWVIPVSLIRRQNDNSDIDSFFGESCAPGSDTKSNLCKLCIGDPKNSAANTKCSLSDKEAYYGNQGAFRCLVEKGDVAFVPHTVVFENTDGKNPAVWAKNLKSEDFELLCLDGSRAPVSNYKSCKLSGIPPPAIVTREESISDVVRIVANQQSLYGRKGFEKDMFQLFSSNKGNNLLFNDNTQCLITADRQPKDIMEDYFGKPYYTTVYGASRSAMSSELISACTIKHC,2.71
2,D785A: RcSxph mutant D785A (protein) MAPTFQTALFFTIISLSFAAPNAKQVRWCAISDLEQKKCNDLVGSCNVPDITLVCVLRSSTEDCMTAIKDGQADAMFLDSGEVYEASKDPYNLKPIIAEPYSSNRDLQKCLKERQQALAKKMIGHYIPQCDEKGNYQPQQCHGSTGHCWCVNAMGEKISGTNTPPGQTRATCERHELPKCLKERQVALGGDEKVLGRFVPQCDEKGNYEPQQFHGSTGYSWCVNAIGEEIAGTKTPPGKIPATCQKHDLVTTCHYAVAMVKKSSAFQFNQLKGKRSCHSGVSKTDGWKALVTVLVEKKLLSWDGPAKESIQRAMSKFFSVSCIPGATQTNLCKQCKGEEGKNCKNSHDEPYYGNYGAFRCLKEDMGDVAFLRSTALSDEHSEVYELLCPDNTRKPLNKYKECNLGTVPAGTVVTRKISDKTEDINNFLMEAQKRQCKLFSSAHGKDLMFDDSTLQLALLSSEVDAFLYLGVKLFHAMKALTGDAHLPSKNKVRWCTINKLEKMKCDDWSAVSGGAIACTEASCPKGCVKQILKGEADAVKLEVQYMYEALMCGLLPAVEEYHNKDDFGPCKTPGSPYTDFGTLRAVALVKKSNKDINWNNIKGKKSCHTGVGDIAGWVIPVSLIRRQNDNSDIDSFFGESCAPGSDTKSNLCKLCIGDPKNSAANTKCSLSDKEAYYGNQGAFRCLVEKGDVAFVPHTVVFENTDGKNPAVWAKNLKSEDFELLCLDGSRAPVSNYKSCKLSGIPPPAIVTREESISDVVRIVANQQSLYGRKGFEKDMFQLFSSNKGNNLLFNDNTQCLITFARQPKDIMEDYFGKPYYTTVYGASRSAMSSELISACTIKHC,0.57
3,I782A/Y558A: RcSxph double mutant I782A/Y558A (protein) MAPTFQTALFFTIISLSFAAPNAKQVRWCAISDLEQKKCNDLVGSCNVPDITLVCVLRSSTEDCMTAIKDGQADAMFLDSGEVYEASKDPYNLKPIIAEPYSSNRDLQKCLKERQQALAKKMIGHYIPQCDEKGNYQPQQCHGSTGHCWCVNAMGEKISGTNTPPGQTRATCERHELPKCLKERQVALGGDEKVLGRFVPQCDEKGNYEPQQFHGSTGYSWCVNAIGEEIAGTKTPPGKIPATCQKHDLVTTCHYAVAMVKKSSAFQFNQLKGKRSCHSGVSKTDGWKALVTVLVEKKLLSWDGPAKESIQRAMSKFFSVSCIPGATQTNLCKQCKGEEGKNCKNSHDEPYYGNYGAFRCLKEDMGDVAFLRSTALSDEHSEVYELLCPDNTRKPLNKYKECNLGTVPAGTVVTRKISDKTEDINNFLMEAQKRQCKLFSSAHGKDLMFDDSTLQLALLSSEVDAFLYLGVKLFHAMKALTGDAHLPSKNKVRWCTINKLEKMKCDDWSAVSGGAIACTEASCPKGCVKQILKGEADAVKLEVQYMYEALMCGLLPAVEEYHNKDDFGPCKTPGSPATDFGTLRAVALVKKSNKDINWNNIKGKKSCHTGVGDIAGWVIPVSLIRRQNDNSDIDSFFGESCAPGSDTKSNLCKLCIGDPKNSAANTKCSLSDKEAYYGNQGAFRCLVEKGDVAFVPHTVVFENTDGKNPAVWAKNLKSEDFELLCLDGSRAPVSNYKSCKLSGIPPPAIVTREESISDVVRIVANQQSLYGRKGFEKDMFQLFSSNKGNNLLFNDNTQCLATFDRQPKDIMEDYFGKPYYTTVYGASRSAMSSELISACTIKHC,-1.07
4,I782F: RcSxph mutant I782F (protein) MAPTFQTALFFTIISLSFAAPNAKQVRWCAISDLEQKKCNDLVGSCNVPDITLVCVLRSSTEDCMTAIKDGQADAMFLDSGEVYEASKDPYNLKPIIAEPYSSNRDLQKCLKERQQALAKKMIGHYIPQCDEKGNYQPQQCHGSTGHCWCVNAMGEKISGTNTPPGQTRATCERHELPKCLKERQVALGGDEKVLGRFVPQCDEKGNYEPQQFHGSTGYSWCVNAIGEEIAGTKTPPGKIPATCQKHDLVTTCHYAVAMVKKSSAFQFNQLKGKRSCHSGVSKTDGWKALVTVLVEKKLLSWDGPAKESIQRAMSKFFSVSCIPGATQTNLCKQCKGEEGKNCKNSHDEPYYGNYGAFRCLKEDMGDVAFLRSTALSDEHSEVYELLCPDNTRKPLNKYKECNLGTVPAGTVVTRKISDKTEDINNFLMEAQKRQCKLFSSAHGKDLMFDDSTLQLALLSSEVDAFLYLGVKLFHAMKALTGDAHLPSKNKVRWCTINKLEKMKCDDWSAVSGGAIACTEASCPKGCVKQILKGEADAVKLEVQYMYEALMCGLLPAVEEYHNKDDFGPCKTPGSPYTDFGTLRAVALVKKSNKDINWNNIKGKKSCHTGVGDIAGWVIPVSLIRRQNDNSDIDSFFGESCAPGSDTKSNLCKLCIGDPKNSAANTKCSLSDKEAYYGNQGAFRCLVEKGDVAFVPHTVVFENTDGKNPAVWAKNLKSEDFELLCLDGSRAPVSNYKSCKLSGIPPPAIVTREESISDVVRIVANQQSLYGRKGFEKDMFQLFSSNKGNNLLFNDNTQCLFTFDRQPKDIMEDYFGKPYYTTVYGASRSAMSSELISACTIKHC,0.46
5,Q787E: RcSxph mutant Q787E (protein) MAPTFQTALFFTIISLSFAAPNAKQVRWCAISDLEQKKCNDLVGSCNVPDITLVCVLRSSTEDCMTAIKDGQADAMFLDSGEVYEASKDPYNLKPIIAEPYSSNRDLQKCLKERQQALAKKMIGHYIPQCDEKGNYQPQQCHGSTGHCWCVNAMGEKISGTNTPPGQTRATCERHELPKCLKERQVALGGDEKVLGRFVPQCDEKGNYEPQQFHGSTGYSWCVNAIGEEIAGTKTPPGKIPATCQKHDLVTTCHYAVAMVKKSSAFQFNQLKGKRSCHSGVSKTDGWKALVTVLVEKKLLSWDGPAKESIQRAMSKFFSVSCIPGATQTNLCKQCKGEEGKNCKNSHDEPYYGNYGAFRCLKEDMGDVAFLRSTALSDEHSEVYELLCPDNTRKPLNKYKECNLGTVPAGTVVTRKISDKTEDINNFLMEAQKRQCKLFSSAHGKDLMFDDSTLQLALLSSEVDAFLYLGVKLFHAMKALTGDAHLPSKNKVRWCTINKLEKMKCDDWSAVSGGAIACTEASCPKGCVKQILKGEADAVKLEVQYMYEALMCGLLPAVEEYHNKDDFGPCKTPGSPYTDFGTLRAVALVKKSNKDINWNNIKGKKSCHTGVGDIAGWVIPVSLIRRQNDNSDIDSFFGESCAPGSDTKSNLCKLCIGDPKNSAANTKCSLSDKEAYYGNQGAFRCLVEKGDVAFVPHTVVFENTDGKNPAVWAKNLKSEDFELLCLDGSRAPVSNYKSCKLSGIPPPAIVTREESISDVVRIVANQQSLYGRKGFEKDMFQLFSSNKGNNLLFNDNTQCLITFDREPKDIMEDYFGKPYYTTVYGASRSAMSSELISACTIKHC,-0.09
6,Y558F: RcSxph mutant Y558F (protein) MAPTFQTALFFTIISLSFAAPNAKQVRWCAISDLEQKKCNDLVGSCNVPDITLVCVLRSSTEDCMTAIKDGQADAMFLDSGEVYEASKDPYNLKPIIAEPYSSNRDLQKCLKERQQALAKKMIGHYIPQCDEKGNYQPQQCHGSTGHCWCVNAMGEKISGTNTPPGQTRATCERHELPKCLKERQVALGGDEKVLGRFVPQCDEKGNYEPQQFHGSTGYSWCVNAIGEEIAGTKTPPGKIPATCQKHDLVTTCHYAVAMVKKSSAFQFNQLKGKRSCHSGVSKTDGWKALVTVLVEKKLLSWDGPAKESIQRAMSKFFSVSCIPGATQTNLCKQCKGEEGKNCKNSHDEPYYGNYGAFRCLKEDMGDVAFLRSTALSDEHSEVYELLCPDNTRKPLNKYKECNLGTVPAGTVVTRKISDKTEDINNFLMEAQKRQCKLFSSAHGKDLMFDDSTLQLALLSSEVDAFLYLGVKLFHAMKALTGDAHLPSKNKVRWCTINKLEKMKCDDWSAVSGGAIACTEASCPKGCVKQILKGEADAVKLEVQYMYEALMCGLLPAVEEYHNKDDFGPCKTPGSPFTDFGTLRAVALVKKSNKDINWNNIKGKKSCHTGVGDIAGWVIPVSLIRRQNDNSDIDSFFGESCAPGSDTKSNLCKLCIGDPKNSAANTKCSLSDKEAYYGNQGAFRCLVEKGDVAFVPHTVVFENTDGKNPAVWAKNLKSEDFELLCLDGSRAPVSNYKSCKLSGIPPPAIVTREESISDVVRIVANQQSLYGRKGFEKDMFQLFSSNKGNNLLFNDNTQCLITFDRQPKDIMEDYFGKPYYTTVYGASRSAMSSELISACTIKHC,-0.10
